The source of these data is patent publication US20150353614.

Holding throughout (experiment): cell_activity
In data set [1] the target is IA (Idi-AraC DBD chimera) (Escherichia coli) (UniProt P0A9E0). The conditions noted are these: no mevalonate.
Data set [2] addresses IA44 R267H (Escherichia coli) (UniProt P0A9E0). The conditions noted are these: twice the Tmax of IA; E. coli HC175.
In data set [3] the target is IA32 L39M,S127C (Escherichia coli) (UniProt P0A9E0). Conditions: half the Tmax of IA; E. coli HC175.

For “TAGCGGATCCTACCTGAAGATTAGCATTTTTATCCATA (double strand) [I2I1 in PBAD]”, in data set [1] (0.56 with 10 mM mevalonate), the activity is 1.12 relative RFP.
Sequence “TAGCATTTTTATCCATAAGATTAGCGGATCCTACCTGA (double strand) [I1I2 in PBAD]” registered an activity in data set [1] (0.36 with 10 mM mevalonate, E. coli HC175) of 1 relative RFP. Further, the activity (Tmax relative to IA) in data set [2] stood at 2; in data set [3] it was 0.5.
